Here are results for one molecule from patent US20240132626A1.

The assay addresses Soluble human cMet extracellular domain (ECD) protein (human) (UniProt P08581). Put plainly: SPR, captured via anti-human kappa, soluble ECD injected. For orientation: Surface plasmon resonance follows binding to a sensor surface in real time, without labels.

Chain of Soluble human cMet extracellular domain (ECD) protein (human) (P08581 25-932): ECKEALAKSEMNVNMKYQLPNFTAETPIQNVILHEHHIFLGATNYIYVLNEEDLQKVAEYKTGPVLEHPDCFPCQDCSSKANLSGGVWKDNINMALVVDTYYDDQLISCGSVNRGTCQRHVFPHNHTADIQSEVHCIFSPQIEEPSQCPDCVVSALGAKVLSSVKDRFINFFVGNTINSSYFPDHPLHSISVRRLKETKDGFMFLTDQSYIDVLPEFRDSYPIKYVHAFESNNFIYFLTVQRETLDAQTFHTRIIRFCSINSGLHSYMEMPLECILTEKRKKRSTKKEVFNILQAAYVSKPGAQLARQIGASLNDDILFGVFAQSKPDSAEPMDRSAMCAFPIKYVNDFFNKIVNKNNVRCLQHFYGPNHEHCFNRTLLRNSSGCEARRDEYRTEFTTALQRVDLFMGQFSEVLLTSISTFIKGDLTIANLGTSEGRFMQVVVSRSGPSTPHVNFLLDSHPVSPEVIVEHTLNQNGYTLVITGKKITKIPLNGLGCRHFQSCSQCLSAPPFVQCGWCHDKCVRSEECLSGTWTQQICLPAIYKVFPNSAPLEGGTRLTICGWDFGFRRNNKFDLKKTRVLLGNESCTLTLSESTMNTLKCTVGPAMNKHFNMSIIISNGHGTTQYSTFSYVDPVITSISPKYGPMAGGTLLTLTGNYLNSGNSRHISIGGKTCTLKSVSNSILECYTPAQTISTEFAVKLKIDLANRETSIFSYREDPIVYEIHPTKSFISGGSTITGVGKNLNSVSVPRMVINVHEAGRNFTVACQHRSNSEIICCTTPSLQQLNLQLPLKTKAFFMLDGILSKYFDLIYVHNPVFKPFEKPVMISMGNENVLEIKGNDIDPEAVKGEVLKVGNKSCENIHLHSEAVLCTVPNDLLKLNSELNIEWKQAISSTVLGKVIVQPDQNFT

B1: MetMAb (antibody, INN chains, looked up, V domains shown)
VH: EVQLVESGGGLVQPGGSLRLSCAASGYTFTSYWLHWVRQAPGKGLEWVGMIDPSNSDTRFNPNFKDRFTISADTSKNTAYLQMNSLRAEDTAVYYCATYRSYVTPLDYWGQGTLVTVSS
VL: DIQMTQSPSSLSASVGDRVTITCKSSQSLLYTSSQKNYLAWYQQKPGKAPKLLIYWASTRESGVPSRFSGSGSGTDFTLTISSLQPEDFATYYCQQYYAYPWTFGQGTKVEIKR
A word on the Kd: it is the constant that tells how readily two partners part at equilibrium. A higher Kd goes with lower affinity. For orientation: koff means the first-order rate constant of dissociation. One may read the kon as the rate constant with which the complex forms. A high value points to faster complex formation. For B1, the Kd was 1.3 nM, the koff turned out to be 0.0001 s⁻¹ and the kon stood at 75000 M⁻¹ s⁻¹.
